Results: patent US7005130

Assays:
[1] = biological target: HPLC-purified recombinant ORF2 capsid protein of human HEV Sar-55 (baculovirus-expressed) (human HEV, Sar-55 strain (Pakistan)) (UniProt P33426); experiment: ELISA, antigen coated at 2 µg/ml, serum 1/200; negative control
[2] = biological target: HPLC-purified recombinant ORF2 capsid protein of swine HEV (baculovirus-expressed) (swine HEV); experiment: as above

Sequence of UniProt P33426 (P33426 112-607): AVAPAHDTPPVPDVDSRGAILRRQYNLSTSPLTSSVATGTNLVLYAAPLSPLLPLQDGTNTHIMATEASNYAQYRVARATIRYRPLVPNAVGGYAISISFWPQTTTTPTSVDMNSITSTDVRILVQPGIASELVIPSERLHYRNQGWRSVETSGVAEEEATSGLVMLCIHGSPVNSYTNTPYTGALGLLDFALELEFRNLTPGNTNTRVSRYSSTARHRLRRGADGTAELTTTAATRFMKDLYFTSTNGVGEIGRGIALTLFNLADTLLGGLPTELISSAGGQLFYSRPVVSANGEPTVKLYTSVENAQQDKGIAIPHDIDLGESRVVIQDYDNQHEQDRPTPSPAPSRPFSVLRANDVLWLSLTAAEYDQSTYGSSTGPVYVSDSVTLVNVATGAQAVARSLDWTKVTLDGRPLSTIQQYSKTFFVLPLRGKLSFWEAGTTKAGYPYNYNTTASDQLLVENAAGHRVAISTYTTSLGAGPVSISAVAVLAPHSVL

Substance “preinoculation control chicken serum (antibody)” has an OD [1] of 0.142 OD at 405 nm and an OD [2] of 0.103 OD at 405 nm.
